± gives the uncertainty stated by the source.
Test: self-splicing fitness, log relative to wild type (ln ratio); higher = more splicing; Tetrahymena group I intron in knt gene, E. coli kanamycin selection, DiMSum; sequences stand for … in CUCUCU…GGAGGGAAAAGUUAUCAGGCAUGCACCUGGUAGCUAGUCUUUAAACCAAUAGAUUGCAUCGGUUUAAAAGGCAAGACCGUCAAAUUGCGGGAAAGGGGUCAACAGCCGUUCAGUACCAAGUCUCAGGGGAAACUUUGAGAUGGCCUUGCAAAGGGUAUGGUAAUAAGCUGACGGACAUGGUCCUAACCACGCAGCCAAGUCCUAAGUCAACAGAUCUUCUGUUGAUAUGGAUGCAGUUCACAGACUAAAUGUCGGUCGGGGAAGAUGUAUUCUUCUCAUAAGAUAUAGUCGGACCUCUCCUUAAUGGGAGCUAGCGGAUGAAGUGAUGCAACACUGGAGCCGCUGGGAACUAAUUUGUAUGCGAAAGUAUAUUGAUUAGUUUUGGAGUACUCGUGGUCG
Method in brief: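 Library with all eight P1ex-region intron nucleotides randomised, intron inside the knt kanamycin-resistance gene on pET-22b(+), in E. coli BL21(DE3). Cells grew overnight at 37°C or 30°C on LB agar with or without 25 μg/mL kanamycin (plus 100 μg/mL carbenicillin, 50 μM IPTG, 0.2% rhamnose), in six replicate transformations. Pooled colonies were amplicon-sequenced on Illumina HiSeq 2500. DiMSum fitness is the error-weighted combination of wild-type-normalised replicate fold changes, kanamycin versus none.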

Sequence | self-splicing fitness (ln) (30 °C) | self-splicing fitness (ln) (37 °C)
AUCCAGCAAUAUUACGGUGA | -1.55 ± 0.096 | -1.17 ± 0.11
AUCCAGCAAUAUUACGGUUG | -2.95 ± 0.1 | -1.03 ± 0.087
AUCCAGCAAUAUUACGUAAU | -0.922 ± 0.072 | -0.492 ± 0.079
AUCCAGCAAUAUUACGUAUC | -3.8 ± 0.27 | -2.26 ± 0.2
AUCCAGCAAUAUUACGUCAC | -2.35 ± 0.19 | -2.44 ± 0.22
AUCCAGCAAUAUUACGUCCU | -1.47 ± 0.11 | -0.253 ± 0.14
AUCCAGCAAUAUUACGUCUC | -1.84 ± 0.12 | -0.869 ± 0.11
AUCCAGCAAUAUUACGUGUA | -1.71 ± 0.06 | -0.487 ± 0.059
AUCCAGCAAUAUUACGUUCG | -2.47 ± 0.1 | -0.92 ± 0.12
AUCGAGCAAUAUUACGACCG |  | -1.63 ± 0.36
AUCGAGCAAUAUUACGAGCA | -1.2 ± 0.12 | -0.963 ± 0.14
AUCGAGCAAUAUUACGAUAA | -2.7 ± 0.26 | -1.74 ± 0.21
AUCGAGCAAUAUUACGAUAU | -2.14 ± 0.17 | -0.583 ± 0.14
AUCGAGCAAUAUUACGAUUA | -2.47 ± 0.23 | 0.0165 ± 0.12
AUCGAGCAAUAUUACGCAAU | -2.08 ± 0.21 | -2.75 ± 0.4
AUCGAGCAAUAUUACGCAUC | -2.77 ± 0.48 | 
AUCGAGCAAUAUUACGCAUU | -1.6 ± 0.24 | -3.11 ± 0.3
AUCGAGCAAUAUUACGCGCA | -1.59 ± 0.17 | -0.0318 ± 0.17
AUCGAGCAAUAUUACGCGUA | -1.93 ± 0.17 | -1.01 ± 0.14
AUCGAGCAAUAUUACGCUCA | -1.09 ± 0.26 | -0.721 ± 0.4
AUCGAGCAAUAUUACGCUUU | -2.98 ± 0.15 | -2.29 ± 0.18
AUCGAGCAAUAUUACGGAUA | -3.67 ± 0.33 | -1.92 ± 0.25
AUCGAGCAAUAUUACGGCAG |  | -2.63 ± 0.46
AUCGAGCAAUAUUACGGCAU | -0.455 ± 0.098 | -0.101 ± 0.1
AUCGAGCAAUAUUACGGCUC | -1.39 ± 0.36 | -1.56 ± 0.49

Sequence | self-splicing fitness (ln) (30 °C) | self-splicing fitness (ln) (37 °C)
AUCGAGCAAUAUUACGGGCG | -2.97 ± 0.16 | -2.37 ± 0.19
AUCGAGCAAUAUUACGGGCU | -4.05 ± 0.23 | -2.94 ± 0.26
AUCGAGCAAUAUUACGGGGU | -3.4 ± 0.21 | -2.52 ± 0.19
AUCGAGCAAUAUUACGUCGG | -2 ± 0.13 | -1.42 ± 0.16
AUCGAGCAAUAUUACGUCGU | -2.19 ± 0.13 | -1.2 ± 0.14
AUCGAGCAAUAUUACGUGCU | -2.72 ± 0.2 | -2 ± 0.27
AUCGAGCAAUAUUACGUGUG | -3.04 ± 0.13 | -2.92 ± 0.18
AUCGAGCAAUAUUACGUUUC |  | -2.81 ± 0.31
AUCUAGCAAUAUUACGAAAA |  | -2.38 ± 0.33
AUCUAGCAAUAUUACGAAAC |  | -1.96 ± 0.49
AUCUAGCAAUAUUACGACAU | 0.0957 ± 0.013 | 0.273 ± 0.032
AUCUAGCAAUAUUACGAUAC | -3.21 ± 0.35 | -2.27 ± 0.29
AUCUAGCAAUAUUACGAUCU | -1.03 ± 0.13 | 0.148 ± 0.15
AUCUAGCAAUAUUACGCAGG | -2.97 ± 0.3 | -1.07 ± 0.18
AUCUAGCAAUAUUACGCGCG | -0.762 ± 0.095 | -0.257 ± 0.12
AUCUAGCAAUAUUACGCGGA | -1.69 ± 0.26 | -2.53 ± 0.23
AUCUAGCAAUAUUACGCGGC | -3.15 ± 0.38 | -2.92 ± 0.33
AUCUAGCAAUAUUACGCUAG | -3.91 ± 0.27 | -3.5 ± 0.31
AUCUAGCAAUAUUACGCUCA | -0.577 ± 0.17 | -0.0187 ± 0.2
AUCUAGCAAUAUUACGCUUG | -1.85 ± 0.12 | -1.36 ± 0.14
AUCUAGCAAUAUUACGGAGC | -3.43 ± 0.19 | -1.32 ± 0.14
AUCUAGCAAUAUUACGGAUC | -3.03 ± 0.17 | -2.33 ± 0.24
AUCUAGCAAUAUUACGGCAG | -2.04 ± 0.17 | -0.157 ± 0.16
AUCUAGCAAUAUUACGGUCU | -0.756 ± 0.078 | -0.908 ± 0.098
AUCUAGCAAUAUUACGGUUU | -1.13 ± 0.13 | -0.53 ± 0.13

Sequence | self-splicing fitness (ln) (30 °C) | self-splicing fitness (ln) (37 °C)
AUCUAGCAAUAUUACGUAAU | -1.28 ± 0.098 | -1.37 ± 0.12
AUCUAGCAAUAUUACGUAGG | -1.96 ± 0.14 | -0.273 ± 0.21
AUCUAGCAAUAUUACGUAUA | -2.84 ± 0.33 | -1.91 ± 0.3
AUCUAGCAAUAUUACGUAUC | -3.29 ± 0.24 | -1.74 ± 0.39
AUCUAGCAAUAUUACGUCGA | -1.39 ± 0.11 | -0.769 ± 0.12
AUCUAGCAAUAUUACGUGAC | -3.35 ± 0.26 | -1.14 ± 0.2
AUCUAGCAAUAUUACGUGAU | -1.16 ± 0.14 | -2.25 ± 0.32
AUGAAGCAAUAUUACGAAAG | -1.77 ± 0.11 | -0.735 ± 0.16
AUGAAGCAAUAUUACGAGUC |  | -2.69 ± 0.24
AUGAAGCAAUAUUACGAGUU | -2.19 ± 0.096 | -1.15 ± 0.1
AUGAAGCAAUAUUACGAUAA | -0.381 ± 0.077 | -0.287 ± 0.085
AUGAAGCAAUAUUACGAUGU | 0.274 ± 0.092 | -0.284 ± 0.099
AUGAAGCAAUAUUACGCAAA | -2.25 ± 0.17 | -1.31 ± 0.17
AUGAAGCAAUAUUACGCACG | -1.09 ± 0.1 | 0.541 ± 0.14
AUGAAGCAAUAUUACGCCAC | -0.249 ± 0.39 | -1.9 ± 0.41
AUGAAGCAAUAUUACGCCAG | -0.726 ± 0.13 | 0.273 ± 0.18
AUGAAGCAAUAUUACGCCCG | -0.353 ± 0.25 | -0.729 ± 0.38
AUGAAGCAAUAUUACGCCUA | 0.118 ± 0.087 | -0.0119 ± 0.14
AUGAAGCAAUAUUACGCGGA | -0.591 ± 0.1 | -0.105 ± 0.12
AUGAAGCAAUAUUACGCUAC | -2.06 ± 0.094 | -1.86 ± 0.15
AUGAAGCAAUAUUACGCUGU | -2.02 ± 0.12 | -0.999 ± 0.13
AUGAAGCAAUAUUACGGAGG | -2.82 ± 0.12 | -0.72 ± 0.12
AUGAAGCAAUAUUACGGGGC | -4.78 ± 0.26 | -2.48 ± 0.2
AUGAAGCAAUAUUACGUAAU | -1.57 ± 0.075 | -0.42 ± 0.094
AUGAAGCAAUAUUACGUAGA | -2.86 ± 0.18 | -1.84 ± 0.19

Sequence | self-splicing fitness (ln) (30 °C) | self-splicing fitness (ln) (37 °C)
AUGAAGCAAUAUUACGUAUU | -1.52 ± 0.081 | -1.23 ± 0.099
AUGAAGCAAUAUUACGUCAA | -0.911 ± 0.064 | -0.148 ± 0.076
AUGAAGCAAUAUUACGUGCC | -0.735 ± 0.12 | -0.196 ± 0.11
AUGAAGCAAUAUUACGUGCU | -1.69 ± 0.12 | -1.39 ± 0.12
AUGCAGCAAUAUUACGAGUC | -3.73 ± 0.25 | -2.32 ± 0.22
AUGCAGCAAUAUUACGAUAU | -1.04 ± 0.054 | 0.0687 ± 0.07
AUGCAGCAAUAUUACGAUCU | -0.511 ± 0.084 | 0.285 ± 0.13
AUGCAGCAAUAUUACGCCAU | -1.53 ± 0.18 | -2.28 ± 0.35
AUGCAGCAAUAUUACGCCCU | -0.387 ± 0.22 | 0.0709 ± 0.25
AUGCAGCAAUAUUACGCCGG | -1.72 ± 0.15 | -0.877 ± 0.21
AUGCAGCAAUAUUACGCCUA | -0.128 ± 0.1 | -0.513 ± 0.12
AUGCAGCAAUAUUACGCGAC | -2.18 ± 0.17 | -0.372 ± 0.17
AUGCAGCAAUAUUACGCGAG | -3.82 ± 0.17 | -0.707 ± 0.11
AUGCAGCAAUAUUACGCGGG | -2.94 ± 0.17 | -2.49 ± 0.17
AUGCAGCAAUAUUACGGAAU | -2.37 ± 0.088 | -0.752 ± 0.093
AUGCAGCAAUAUUACGGCAG | -0.985 ± 0.11 | -1.29 ± 0.15
AUGCAGCAAUAUUACGGCGC | -0.143 ± 0.17 | 0.107 ± 0.18
AUGCAGCAAUAUUACGGCUC | -0.408 ± 0.1 | -0.0582 ± 0.13
AUGCAGCAAUAUUACGGGAC | -2.82 ± 0.17 | -2.74 ± 0.19
AUGCAGCAAUAUUACGGGAG | -3.13 ± 0.17 | -2.11 ± 0.13
AUGCAGCAAUAUUACGGGCU | -2.25 ± 0.078 | -1.07 ± 0.1
AUGCAGCAAUAUUACGGUGG | -3.96 ± 0.18 | -1.86 ± 0.12

Reference: the supplement of paper PMC7877785
